This data set has as its target biotinylated H3 peptide (first 21 amino acids of Histone H3 with a Biotin label on the CO2H terminus, Upstate Biotechnology), P68431.

B1: SUV39H1(82-412)-GST protein (protein)
chain: CVRILKQFHKDLERELLRRHHRSKTPRHLDPSLANYLVQKAKQRRALRRWEQELNAKRSHLGRITVENEVDLDGPPRAFVYINEYRVGEGITLNQVAVGCECQDCLWAPTGGCCPGASLHKFAYNDQGQVRLRAGLPIYECNSRCRCGYDCPNRVVQKGIRYDLCIFRTDDGRGWGVRTLEKIRKNSFVMEYVGEIITSEEAERRGQIYDRQGATYLFDLDYVEDVYTVDAAYYGNISHFVNHSCDPNLQVYNVFIDNLDERLPRIAFFATRTIRAGEELTFDYNMQVDPVDMESTRMDSNFGLAGLPGSPKKRVRIECKCGTESCRKYLF
In the case of B1, the “Histone methyl transferase activity (radioactive assay, 14C labelled methylated H3 peptide)” value is on record as “Histone methyl transferase activity of truncated protein was confirmed by radioactive assay”.

(Values after patent publication US20060257928.)
